Measurements published in patent US6544767 (AXYS PHARMACEUTICALS, dated 2003).

Target: T1, mature recombinant human cathepsin O2 (human, UniProt P43235 115-329)
T1 construct: also called parent enzyme; mature enzyme
T1 sequence: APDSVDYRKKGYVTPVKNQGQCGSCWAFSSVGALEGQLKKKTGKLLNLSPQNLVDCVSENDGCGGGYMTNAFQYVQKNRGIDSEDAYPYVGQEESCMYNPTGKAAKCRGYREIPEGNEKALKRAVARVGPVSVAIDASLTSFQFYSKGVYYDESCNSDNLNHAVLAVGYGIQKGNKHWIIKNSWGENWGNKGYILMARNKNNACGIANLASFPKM
Experiment: inhibition of enzyme activity; assay not detailed in Example 3

Ki: 0.1 nM
B1: propart of human cathepsin O2 (expressed separately in the pTrcHis vector, six-histidine metal binding domain) (other)
chain: LYPEEILDTHWELWKKTHRKQYNNKVDEISRRLIWEKNLKYISIHNLEASLGVHTYELAMNHLGDMTSEEVVQKMTGLKVPLSHSRSNDTLYIPEWEGR
notes: Tag removal is not mentioned; also called proregion; not shown: vector-encoded leader of pTrcHis with a series of six histidine residues
